From the supplement of paper PMC9170038

Test system: MS2 coat protein
Assay: apparent KD of MS2 coat protein; designed switch direction (-1 OFF switch, 1 ON switch): 1; higher = weaker reporter binding
Method in brief: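 Designed RNA switches with common flanks were transcribed on Illumina chips by stalled E. coli RNA polymerase and titrated with SNAP-549-labelled MS2 coat protein, from 0.7 or 1.5 nM doubling to 3 µM, in Tris-HCl pH 7.5 buffer with KCl, MgCl2, BSA, DTT, tRNA and Tween-20. Steps lasted 0.8–1.5 h (lowest) to 10–20 min (highest). Titrations ran without input, with 200 uM small-molecule ligand, or with an oligonucleotide input. Normalised cluster fluorescence was curve-fitted, and apparent KD is the per-design median over clusters.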

[1] = Eterna round: R95, input ligand: microRNA oligo, concentration not stated
[2] = Eterna round: R95, input ligand: FMN 200 uM
[3] = Eterna round: R95, input ligand: none
[4] = input ligand: microRNA oligo, concentration not stated

Sequence	apparent KD of MS2 coat protein [1]	apparent KD of MS2 coat protein [2]	apparent KD of MS2 coat protein [3]	apparent KD of MS2 coat protein (input ligand: FMN 200 uM)	apparent KD of MS2 coat protein [4]	apparent KD of MS2 coat protein (input ligand: none)
AUUAAACAUGAGGAUCACCCAUGUCAACAAAGUCGAGGAUAUGGGCAAUUAAAAUAAGAACCAGAAGGCGAAUAAU [salish99_ss1_r3_061] (puzzle: Same State 1)	224 nM	–	–	–	–	–
UUUAAACAUGAGGAUCACCCAUGUUUUUUCAUGGGAGGAUAUCUAAGUUAAUUAUAUUAAGGAGAAGGCCUAUUUU [× ×•×ª×• ×ž×“×™× ×” × ×—×ª-05] (puzzle: Same State 1)	48.8 nM	111 nM	53.1 nM	–	–	–
UGAAUGGUGAUAGGAUAUACAUGAGGAAUCCUCGUAGAAGGAUCAUGACAUGAGGAUCACCCAUGUAGCCGUCCGUAGACGGCA [JL SSNG1 1.22] (Eterna round: R96, puzzle: Same State NG 1)	–	–	–	140 nM	22.1 nM	351 nM
AGUAUACAUGAGGAUCACCCAUGUCUGUAACGGACAGGAUAUGCGUUGCAUCACUGUAAUGCAGAAGGGUCCUGUA [Same State 1 - Mod of JMF's solution 1 v.2] (Eterna round: R96, puzzle: Same State 1)	–	–	–	50.5 nM	148 nM	202 nM
AGUCCUGCCUGAGCAGGACAAAAGCAUGUACAUGAGGAUCACCCAUGUCAUGUACAAGCUUUUUGCUCGUCUUAAUA [Mat - hsa-mir-208a - Mod of JL - D41] (Eterna round: R96, puzzle: Sensor for hsa-mir-208a)	–	–	–	624 nM	13.7 nM	735 nM
UGGCUCAGACGAGGAUAUGAUCAUGGCGCUUCGGCGCAUACAUGAGGAUCACCCAUGUAGGGUGAUCAGAAGGCGUCUGAGCCA [SSNG2/8-A2] (Eterna round: R96, puzzle: Same State NG 2)	–	–	–	55.8 nM	413 nM	460 nM
GCGAGCGUACUUGCAACAUGAGGAUCACCCAUGUUAACUGGACAGGAUAUGGUACCGUUUCGGUACCAGAAGGGUUCACUCAUG [JL SSNG3 3.59] (Eterna round: R96, puzzle: Same State NG 3)	–	–	–	–	64.2 nM	–
GCAGUACAUGAGGAUCACCCAUGUCUCUAAAGUCGAGGAUAUGGGCAGGUUAUAUCCGAACCAGAAGGCGAGCUGC [SS1 Teenbexe 12] (puzzle: Same State 1)	301 nM	81.5 nM	339 nM	–	–	–
AGUCCAGCGAAAGCUGGACAAAAGCAUGUACAUGAGGAUCACCCAUGUUUAUGUACAAGCUUUUUGCUCGUUUUAAA [JL mod - D95 - 16] (puzzle: Sensor for hsa-mir-208a)	13.1 nM	365 nM	433 nM	–	–	–
GCUCGACGUAUGGCCUACAUGAGGAUCACCCAUGUGAUUGGGCAGGAUAUCUAGAUGCAGGAUGUAGAGAAGGGCCCGUCGAGC [SameState NG3 #47] (Eterna round: R96, puzzle: Same State NG 3)	–	–	–	393 nM	92 nM	230 nM
UUUGCAUGACGAGGAUAUCAUUUAUAUCUUGAUUGAGAAGGCGUUCUUUUUUUUACCUAACAUGAGGAUCACCCAUGUGACAGU [JR_SSNG1_Sub050] (Eterna round: R96, puzzle: Same State NG 1)	–	–	–	14.1 nM	13.4 nM	16.1 nM
AUAAGUUUGAUGCUCGUCUCUCCGUACAGACAUGAGGAUCACCCAUGUAGUCGGGCAGUAGCCCGGCCAGUAUGGCC [Raatbeor] (puzzle: Sensor for hsa-mir-208a)	28.8 nM	103 nM	119 nM	–	–	–
AGCUAGUACGAAGGAUAUACAAACAUGAGGAUCACCCAUGUAUACAUGGUUUGUUGUGACUACAUGUAGAAGGUCGUACUAGCA [SameState NG2 #16] (Eterna round: R96, puzzle: Same State NG 2)	–	–	–	362 nM	773 nM	987 nM
UGGCUCAGAGCAGGAUAUACGUGGUCACAUGAGGAUCACCCAUGUCUCGAGCUUCGGCUCGAGGCGUAGAAGGGCUCUGAGCCU [SSNG2/6-B3] (Eterna round: R96, puzzle: Same State NG 2)	–	–	–	118 nM	131 nM	258 nM
UGUUAACAUGAGGAUCACCCAUGUCAAAUGAAUCGAGGAUAUGGGAAGUAAUAAGAGAAACUAGAAGGCGAAGUUG [Altered State 1-2 - Jieux - Same State 1] (puzzle: Same State 1)	353 nM	276 nM	192 nM	–	–	–
AGCCGAAGCACAGGAUAUACAUGUAUACAUGAGGAUCACCCAUGUAGCAACACGUGGUAGUGAUUGUAGAAGGGUGCUCGGCGC [Omei SS(NG)2 Cv14] (Eterna round: R96, puzzle: Same State NG 2)	–	–	–	21.3 nM	16 nM	25.3 nM
